This note sets out measurements from the Human Domainome abundance scans (Beltran et al. 2025).

The labels stand for the following.
B1: Histidine--tRNA ligase, cytoplasmic, residues 8 to 45; numbered along this chain, P12081 (parent)
chain: EELVKLQGERVRGLKQQKASAELIEEEVAKLLKLKAQL

± gives the uncertainty stated by the source.

The variants in this data set derive from B1. The data set can be described thus: abundance fitness (aPCA) (normalised: wild type 0, dead -1); higher = more abundant; growth selection in yeast, the domain comes from the species named. To be noted: Homo sapiens.
Consider EELVKIQGERVRGLKQQKASAELIEEEVAKLLKLKAQL [L6I], for which the abundance fitness is -0.428 ± 0.22. Consider EELVKKQGERVRGLKQQKASAELIEEEVAKLLKLKAQL [L6K], for which the abundance fitness is 0.155 ± 0.12. With EELVKSQGERVRGLKQQKASAELIEEEVAKLLKLKAQL [L6S], the abundance fitness is -0.136 ± 0.076. The same measure for EELVKCQGERVRGLKQQKASAELIEEEVAKLLKLKAQL [L6C]: -0.436 ± 0.082. As for EELVKYQGERVRGLKQQKASAELIEEEVAKLLKLKAQL [L6Y], the figure is -0.261 ± 0.091. The same measure for EELVKPQGERVRGLKQQKASAELIEEEVAKLLKLKAQL [L6P]: -0.211 ± 0.1; for EELVKRQGERVRGLKQQKASAELIEEEVAKLLKLKAQL [L6R]: 0.051 ± 0.098; for EELVKEQGERVRGLKQQKASAELIEEEVAKLLKLKAQL [L6E]: 0.128 ± 0.12. Regarding EELVKMQGERVRGLKQQKASAELIEEEVAKLLKLKAQL [L6M], the abundance fitness came to 0.1 ± 0.11. Regarding EELVKNQGERVRGLKQQKASAELIEEEVAKLLKLKAQL [L6N], the abundance fitness was -0.017 ± 0.1. The same measure for EELVKLQVERVRGLKQQKASAELIEEEVAKLLKLKAQL [G8V]: 0.085 ± 0.098.

Regarding EELVKLQLERVRGLKQQKASAELIEEEVAKLLKLKAQL [G8L], the abundance fitness is -0.002 ± 0.075. Regarding EELVKLQNERVRGLKQQKASAELIEEEVAKLLKLKAQL [G8N], the abundance fitness is -0.075 ± 0.09.

Regarding EELVKLQFERVRGLKQQKASAELIEEEVAKLLKLKAQL [G8F], the abundance fitness was -0.287 ± 0.12.

For EELVKLQKERVRGLKQQKASAELIEEEVAKLLKLKAQL [G8K], the abundance fitness was determined as 0.377 ± 0.27. On to EELVKLQHERVRGLKQQKASAELIEEEVAKLLKLKAQL [G8H], for which the abundance fitness is -0.409 ± 0.1.

As for EELVKLQQERVRGLKQQKASAELIEEEVAKLLKLKAQL [G8Q], the abundance fitness stood at 0.194 ± 0.11. As for EELVKLQRERVRGLKQQKASAELIEEEVAKLLKLKAQL [G8R], the figure is -0.04 ± 0.082; as for EELVKLQYERVRGLKQQKASAELIEEEVAKLLKLKAQL [G8Y], -0.285 ± 0.094. As for EELVKLQIERVRGLKQQKASAELIEEEVAKLLKLKAQL [G8I], the figure is 0.086 ± 0.12; as for EELVKLQAERVRGLKQQKASAELIEEEVAKLLKLKAQL [G8A], 0.101 ± 0.09. As to EELVKLQTERVRGLKQQKASAELIEEEVAKLLKLKAQL [G8T], the abundance fitness worked out at 0.217 ± 0.1.

As to EELVKLQDERVRGLKQQKASAELIEEEVAKLLKLKAQL [G8D], the abundance fitness worked out at 0.054 ± 0.097. The same measure for EELVKLQEERVRGLKQQKASAELIEEEVAKLLKLKAQL [G8E]: 0.44 ± 0.11; for EELVKLQSERVRGLKQQKASAELIEEEVAKLLKLKAQL [G8S]: 0.074 ± 0.068; for EELVKLQPERVRGLKQQKASAELIEEEVAKLLKLKAQL [G8P]: -0.25 ± 0.094. Consider EELVKLQWERVRGLKQQKASAELIEEEVAKLLKLKAQL [G8W], for which the abundance fitness was -0.452 ± 0.27.

Regarding EELVKLQCERVRGLKQQKASAELIEEEVAKLLKLKAQL [G8C], the abundance fitness was -1.04 ± 0.1. As for EELVKLQMERVRGLKQQKASAELIEEEVAKLLKLKAQL [G8M], the figure is 0.106 ± 0.15; as for EELVKLQGERFRGLKQQKASAELIEEEVAKLLKLKAQL [V11F], -0.571 ± 0.089. Regarding EELVKLQGERARGLKQQKASAELIEEEVAKLLKLKAQL [V11A], the abundance fitness is -0.169 ± 0.08.

Regarding EELVKLQGERKRGLKQQKASAELIEEEVAKLLKLKAQL [V11K], the abundance fitness was -0.255 ± 0.094. On to EELVKLQGERSRGLKQQKASAELIEEEVAKLLKLKAQL [V11S], for which the abundance fitness is -0.238 ± 0.075. Take EELVKLQGERNRGLKQQKASAELIEEEVAKLLKLKAQL [V11N]: the abundance fitness was -0.334 ± 0.096. As for EELVKLQGERGRGLKQQKASAELIEEEVAKLLKLKAQL [V11G], the figure is -0.121 ± 0.09; as for EELVKLQGERRRGLKQQKASAELIEEEVAKLLKLKAQL [V11R], -0.03 ± 0.099. Turning to EELVKLQGERPRGLKQQKASAELIEEEVAKLLKLKAQL [V11P], the abundance fitness was -0.01 ± 0.088. EELVKLQGERERGLKQQKASAELIEEEVAKLLKLKAQL [V11E]: the abundance fitness is 0.055 ± 0.15. On to EELVKLQGERQRGLKQQKASAELIEEEVAKLLKLKAQL [V11Q], for which the abundance fitness was 0.011 ± 0.091.

For EELVKLQGERMRGLKQQKASAELIEEEVAKLLKLKAQL [V11M], the abundance fitness was -0.106 ± 0.1. In the case of EELVKLQGERCRGLKQQKASAELIEEEVAKLLKLKAQL [V11C], the abundance fitness is -1.51 ± 0.16. For EELVKLQGERWRGLKQQKASAELIEEEVAKLLKLKAQL [V11W], the abundance fitness is -0.374 ± 0.17.

As for EELVKLQGERYRGLKQQKASAELIEEEVAKLLKLKAQL [V11Y], the abundance fitness is -0.552 ± 0.11. With EELVKLQGERIRGLKQQKASAELIEEEVAKLLKLKAQL [V11I], the abundance fitness was -0.011 ± 0.13. Regarding EELVKLQGERLRGLKQQKASAELIEEEVAKLLKLKAQL [V11L], the abundance fitness was -0.189 ± 0.071. The same measure for EELVKLQGERTRGLKQQKASAELIEEEVAKLLKLKAQL [V11T]: -0.127 ± 0.084. The same measure for EELVKLQGERHRGLKQQKASAELIEEEVAKLLKLKAQL [V11H]: -0.209 ± 0.11; for EELVKLQGWRVRGLKQQKASAELIEEEVAKLLKLKAQL [E9W]: -0.726 ± 0.19; for EELVKLQGRRVRGLKQQKASAELIEEEVAKLLKLKAQL [E9R]: -0.464 ± 0.086. The same measure for EELVKLQGFRVRGLKQQKASAELIEEEVAKLLKLKAQL [E9F]: -0.684 ± 0.097. On to EELVKLQGHRVRGLKQQKASAELIEEEVAKLLKLKAQL [E9H], for which the abundance fitness was -0.699 ± 0.11.

As to EELVKLQGQRVRGLKQQKASAELIEEEVAKLLKLKAQL [E9Q], the abundance fitness is -0.379 ± 0.079. EELVKLQGARVRGLKQQKASAELIEEEVAKLLKLKAQL [E9A]: the abundance fitness was -0.186 ± 0.091. On to EELVKLQGCRVRGLKQQKASAELIEEEVAKLLKLKAQL [E9C], for which the abundance fitness is -0.5 ± 0.084. As for EELVKLQGIRVRGLKQQKASAELIEEEVAKLLKLKAQL [E9I], the figure is -0.716 ± 0.097. On to EELVKLQGPRVRGLKQQKASAELIEEEVAKLLKLKAQL [E9P], for which the abundance fitness is -0.631 ± 0.074.

Take EELVKLQGSRVRGLKQQKASAELIEEEVAKLLKLKAQL [E9S]: the abundance fitness was -0.291 ± 0.081.

Turning to EELVKLQGTRVRGLKQQKASAELIEEEVAKLLKLKAQL [E9T], the abundance fitness was -0.246 ± 0.075. As for EELVKLQGYRVRGLKQQKASAELIEEEVAKLLKLKAQL [E9Y], the figure is -0.816 ± 0.1; as for EELVKLQGMRVRGLKQQKASAELIEEEVAKLLKLKAQL [E9M], -0.232 ± 0.1.

Take EELVKLQGNRVRGLKQQKASAELIEEEVAKLLKLKAQL [E9N]: the abundance fitness was determined as 0.035 ± 0.13. The same measure for EELVKLQGDRVRGLKQQKASAELIEEEVAKLLKLKAQL [E9D]: -0.001 ± 0.13. As for EELVKLQGVRVRGLKQQKASAELIEEEVAKLLKLKAQL [E9V], the figure is -0.653 ± 0.077. As for EELVKLQGGRVRGLKQQKASAELIEEEVAKLLKLKAQL [E9G], the figure is -0.357 ± 0.084.

Turning to EELVKLQGKRVRGLKQQKASAELIEEEVAKLLKLKAQL [E9K], the abundance fitness is -0.324 ± 0.11.

Turning to EELVKLQGLRVRGLKQQKASAELIEEEVAKLLKLKAQL [E9L], the abundance fitness was -0.466 ± 0.084.
